{
  "source": "patent US20040176301A1",
  "note": "Square brackets hold non-standard residues; d marks the D form. Phe(3-F) = N[C@@H](Cc1cccc(F)c1)C(=O)O; Phe(4-F) = N[C@@H](Cc1ccc(F)cc1)C(=O)O; Tic = O=C(O)[C@@H]1Cc2ccccc2CN1; Cha = N[C@@H](CC1CCCCC1)C(=O)O; Phe(ol) = N[C@H](CO)Cc1ccccc1; Phg = N[C@H](C(=O)O)c1ccccc1; Nle = CCCC[C@H](N)C(=O)O; Nva = CCC[C@H](N)C(=O)O; Abu = CC[C@H](N)C(=O)O",
  "data": [
    {"target": "Cyclin A (UniProt P20248)", "experiment": "cyclin A binding assay, IC50 (immobilised ligand not given)", "settings": "not given", "units": {"IC50": "µM"}, "values": [
      {"substance": "Ac-Arg-Arg-Leu-Asn-Phe-NH2 (peptide)", "IC50": 8.15}
    ]},
    {"target": "Cyclin A (UniProt P20248)", "experiment": "competitive ELISA: cyclin A binding to immobilised biotinyl-Ahx-HAKRRLIF-NH2", "settings": "not given", "values": [
      {"substance": "H-AAKRRLIF-NH2", "Relative activity, Cyclin A Binding (relative to HAKRRLIF-NH2)": 2.5},
      {"substance": "H-Dab-Ala-Lys-Arg-Arg-Leu-Ile Phe-NH2 (peptide)", "Relative activity, Cyclin A Binding (relative to HAKRRLIF-NH2)": 0.4},
      {"substance": "H-FAKRRLIF-NH2", "Relative activity, Cyclin A Binding (relative to HAKRRLIF-NH2)": 1},
      {"substance": "H-Hse-Ala-Lys-Arg-Arg-Leu-Ile Phe-NH2 (peptide)", "Relative activity, Cyclin A Binding (relative to HAKRRLIF-NH2)": 2},
      {"substance": "H-Pya-Ala-Lys-Arg-Arg-Leu-Ile Phe-NH2 (peptide)", "Relative activity, Cyclin A Binding (relative to HAKRRLIF-NH2)": 0.2},
      {"substance": "H-Thi-Ala-Lys-Arg-Arg-Leu-Ile Phe-NH2 (peptide)", "Relative activity, Cyclin A Binding (relative to HAKRRLIF-NH2)": 0.2}
    ]},
    {"target": "Cyclin D1 (UniProt P24385)", "sequence (P24385 whole entry)": "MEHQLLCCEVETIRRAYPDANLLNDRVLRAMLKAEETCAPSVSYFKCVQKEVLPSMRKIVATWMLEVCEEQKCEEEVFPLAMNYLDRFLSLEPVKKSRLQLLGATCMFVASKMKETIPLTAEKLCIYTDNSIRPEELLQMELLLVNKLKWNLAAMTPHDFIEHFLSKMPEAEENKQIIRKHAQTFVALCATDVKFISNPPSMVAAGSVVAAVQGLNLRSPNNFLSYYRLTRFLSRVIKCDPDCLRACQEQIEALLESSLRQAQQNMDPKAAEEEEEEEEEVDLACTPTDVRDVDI", "experiment": "competitive ELISA: cyclin D1 binding to immobilised biotinyl-Ahx-p21(149-159)", "settings": "not given", "units": {"IC50": "µM"}, "values": [
      {"substance": "P21 N-terminus peptide KAURRLFG-NH2", "IC50": 134},
      {"substance": "P21 N-terminus-LIF hybrid KAURRLIF-NH2 (peptide)", "IC50": 20},
      {"substance": "P27 peptide H-Ser-Ala-Abu-Arg-Asn-Leu-Phe-Gly-NH2", "IC50": "> 200"}
    ]},
    {"target": "Cyclin A (UniProt P20248)", "experiment": "competitive cyclin A binding ELISA; competitor: immobilised biotinyl-Ahx-HAKRRLIF-NH2; at 100 µM test peptide", "settings": "not given", "units": {"Maximum Inhibition (%)": "%"}, "values": [
      {"substance": "H-Arg-Leu-Ile-Phe-NH2 (peptide)", "Maximum Inhibition (%)": 50},
      {"substance": "H-Asn-Leu-Phe-Gly-NH2 (peptide)", "Maximum Inhibition (%)": 80}
    ]},
    {"target": "Cyclin A (UniProt P20248)", "experiment": "competitive cyclin A binding ELISA; competitor: immobilised biotinyl-Ahx-His-Ala-Lys-Arg-Arg-Leu-Ile-Phe-NH2 (SEQ ID No. 186)", "settings": "scale: relative to H-His-Ala-Lys-Arg-Arg-Leu-Ile-Phe-NH2", "values": [
      {"substance": "H-HAARRLIF-NH2", "Relative activity, Cyclin A Binding": 0.5},
      {"substance": "H-HAKARLIF-NH2", "Relative activity, Cyclin A Binding": "< 0.1"},
      {"substance": "H-HAKKRLIF-NH2", "Relative activity, Cyclin A Binding": 0.1},
      {"substance": "H-HAKQRLIF-NH2", "Relative activity, Cyclin A Binding": "< 0.1"},
      {"substance": "H-HAKRALIF-NH2", "Relative activity, Cyclin A Binding": "< 0.1"},
      {"substance": "H-HAKRNLIF-NH2", "Relative activity, Cyclin A Binding": "< 0.1"},
      {"substance": "H-HAKRPLIF-NH2", "Relative activity, Cyclin A Binding": "< 0.1"},
      {"substance": "H-HAKRRFIF-NH2", "Relative activity, Cyclin A Binding": "< 0.1"},
      {"substance": "H-HAKRRIIF-NH2", "Relative activity, Cyclin A Binding": 0.2},
      {"substance": "H-HAKRRLAF-NH2", "Relative activity, Cyclin A Binding": 0.8},
      {"substance": "H-HAKRRLF-NH2", "Relative activity, Cyclin A Binding": "< 0.1"},
      {"substance": "H-HAKRRLFF-NH2", "Relative activity, Cyclin A Binding": 0.4},
      {"substance": "H-HAKRRLIK-NH2", "Relative activity, Cyclin A Binding": "< 0.1"},
      {"substance": "H-HAKRRLIL-NH2", "Relative activity, Cyclin A Binding": "< 0.1"},
      {"substance": "H-HAKRRLIW-NH2", "Relative activity, Cyclin A Binding": 0.1},
      {"substance": "H-HAKRRLIY-NH2", "Relative activity, Cyclin A Binding": 0.2},
      {"substance": "H-HAKRRLI[Cha]-NH2", "Relative activity, Cyclin A Binding": "< 0.1"},
      {"substance": "H-HAKRRLI[Phe(3-F)]-NH2", "Relative activity, Cyclin A Binding": 0.8},
      {"substance": "H-HAKRRLI[Phe(4-F)]-NH2", "Relative activity, Cyclin A Binding": 5},
      {"substance": "H-HAKRRLI[Phe(ol)]", "Relative activity, Cyclin A Binding": 1},
      {"substance": "H-HAKRRLI[Tic]-NH2", "Relative activity, Cyclin A Binding": "< 0.1"},
      {"substance": "H-HAKRRLLF-NH2", "Relative activity, Cyclin A Binding": 0.6},
      {"substance": "H-HAKRRLVF-NH2", "Relative activity, Cyclin A Binding": 1.5},
      {"substance": "H-HAKRRL[Cha]F-NH2", "Relative activity, Cyclin A Binding": 0.5},
      {"substance": "H-HAKRRL[Nle]F-NH2", "Relative activity, Cyclin A Binding": 0.3},
      {"substance": "H-HAKRRL[Nva]F-NH2", "Relative activity, Cyclin A Binding": 0.6},
      {"substance": "H-HAKRRVIF-NH2", "Relative activity, Cyclin A Binding": "< 0.1"},
      {"substance": "H-HAKRR[Cha]IF-NH2", "Relative activity, Cyclin A Binding": "< 0.1"},
      {"substance": "H-HAKRR[Nle]IF-NH2", "Relative activity, Cyclin A Binding": "< 0.1"},
      {"substance": "H-HAKRR[Nva]IF-NH2", "Relative activity, Cyclin A Binding": "< 0.1"},
      {"substance": "H-HAKRSLIF-NH2", "Relative activity, Cyclin A Binding": 0.2},
      {"substance": "H-HALRRLIF-NH2", "Relative activity, Cyclin A Binding": 1.4},
      {"substance": "H-HARRRLIF-NH2", "Relative activity, Cyclin A Binding": 1.5},
      {"substance": "H-HA[Abu]RRLIF-NH2", "Relative activity, Cyclin A Binding": 0.2},
      {"substance": "H-HA[Nle]RRLIF-NH2", "Relative activity, Cyclin A Binding": 0.2},
      {"substance": "H-HFKRRLIF-NH2", "Relative activity, Cyclin A Binding": 0.2},
      {"substance": "H-HGKRRLIF-NH2", "Relative activity, Cyclin A Binding": 0.1},
      {"substance": "H-HIKRRLIF-NH2", "Relative activity, Cyclin A Binding": 0.2},
      {"substance": "H-HVKRRLIF-NH2", "Relative activity, Cyclin A Binding": 1.7},
      {"substance": "H-H[Abu]KRRLIF-NH2", "Relative activity, Cyclin A Binding": 1.3},
      {"substance": "H-H[Nva]KRRLIF-NH2", "Relative activity, Cyclin A Binding": "< 0.1"},
      {"substance": "H-H[Phg]KRRLIF-NH2", "Relative activity, Cyclin A Binding": "< 0.1"},
      {"substance": "H-His-Ala-Lys-Arg-Aib-Leu-Ile-Phe-NH2 (peptide)", "Relative activity, Cyclin A Binding": "< 0.1"},
      {"substance": "H-His-Ala-Lys-Arg-Arg-1Nap-Ile-Phe-NH2 (peptide)", "Relative activity, Cyclin A Binding": "< 0.1"},
      {"substance": "H-His-Ala-Lys-Arg-Arg-Leu-1Nap-Phe-NH2 (peptide)", "Relative activity, Cyclin A Binding": 0.5},
      {"substance": "H-His-Ala-Lys-Arg-Arg-Leu-Ile-1Nap-NH2 (peptide)", "Relative activity, Cyclin A Binding": "< 0.1"},
      {"substance": "H-His-Ala-Lys-Arg-Arg-Leu-Ile-2Nap-NH2 (peptide)", "Relative activity, Cyclin A Binding": 0.7},
      {"substance": "H-His-Ala-Lys-Arg-Arg-Leu-Ile-D-Pse-OH (peptide)", "Relative activity, Cyclin A Binding": 0.1},
      {"substance": "H-His-Ala-Lys-Arg-Arg-Leu-Ile-Dhp-OH (peptide)", "Relative activity, Cyclin A Binding": 0.2},
      {"substance": "H-His-Ala-Lys-Arg-Arg-Leu-Ile-Hof-NH2 (peptide)", "Relative activity, Cyclin A Binding": "< 0.1"},
      {"substance": "H-His-Ala-Lys-Arg-Arg-Leu-Ile-L-Pse-OH (peptide)", "Relative activity, Cyclin A Binding": 0.2},
      {"substance": "H-His-Ala-Lys-Arg-Sar-Leu-Ile-Phe-NH2 (peptide)", "Relative activity, Cyclin A Binding": "< 0.1"},
      {"substance": "H-His-Ala-Lys-Cit-Arg-Leu-Ile-Phe-NH2 (peptide)", "Relative activity, Cyclin A Binding": 0.2},
      {"substance": "H-His-Ala-Lys-Hse-Arg-Leu-Ile-Phe-NH2 (peptide)", "Relative activity, Cyclin A Binding": "< 0.1"},
      {"substance": "H-His-Ala-Lys-Nle-Arg-Leu-Ile-Phe-NH2 (peptide)", "Relative activity, Cyclin A Binding": "< 0.1"},
      {"substance": "H-His-Bug-Lys-Arg-Arg-Leu-Ile-Phe-NH2 (peptide)", "Relative activity, Cyclin A Binding": 1.2},
      {"substance": "H-His-Ser-Lys-Arg-Arg-Leu-Ile-D-Pse-OH (peptide)", "Relative activity, Cyclin A Binding": "< 0.1"},
      {"substance": "H-His-Ser-Lys-Arg-Arg-Leu-Ile-L-Pse-OH (peptide)", "Relative activity, Cyclin A Binding": "< 0.1"},
      {"substance": "H-His-Ser-Lys-Arg-Arg-Leu-Ile-Pheol (peptide)", "Relative activity, Cyclin A Binding": "< 0.1"}
    ]}
  ]
}
